Data from the Human Domainome abundance scans (Beltran et al. 2025).
± gives the uncertainty stated by the source.

B1: Tripartite motif-containing protein 44, residues 174 to 218; numbered along this chain, Q96DX7 (parent)
chain: VAKRKCPDHGLDLSTYCQEDRQLICVLCPVIGAHQGHQLSTLDEA

Variants of: B1
Assay: abundance fitness (aPCA) (normalised: wild type 0, dead -1); higher = more abundant; growth selection in yeast, the domain comes from the species named
Details: Homo sapiens

Row | Variant | abundance fitness
1 | VAKRKCPDWGLDLSTYCQEDRQLICVLCPVIGAHQGHQLSTLDEA [H9W] | -1.03 ± 0.058
2 | VAKIKCPDHGLDLSTYCQEDRQLICVLCPVIGAHQGHQLSTLDEA [R4I] | -0.046 ± 0.042
3 | VAKAKCPDHGLDLSTYCQEDRQLICVLCPVIGAHQGHQLSTLDEA [R4A] | -0.062 ± 0.029
4 | VAKRKCPDHGLDLSTYCQVDRQLICVLCPVIGAHQGHQLSTLDEA [E19V] | -0.06 ± 0.027
5 | VAKRKCPDHGLDLSTYCQLDRQLICVLCPVIGAHQGHQLSTLDEA [E19L] | -0.081 ± 0.027
6 | VAKRKCPDHGLDLSTYCQMDRQLICVLCPVIGAHQGHQLSTLDEA [E19M] | -0.108 ± 0.032
7 | VAKRKCPDHGLDLSTYCQTDRQLICVLCPVIGAHQGHQLSTLDEA [E19T] | -0.01 ± 0.037
8 | VAKRKCPDHGLDLSTYCQEDRQLICVLCPVIGYHQGHQLSTLDEA [A33Y] | -0.094 ± 0.046
9 | VAKRKCPDHGLDLSTYCQEDRQLICVLCPVIGWHQGHQLSTLDEA [A33W] | -0.148 ± 0.032
10 | VAKRKCPDHGLDLSTYCQEDRQLICVLCPVIGAHEGHQLSTLDEA [Q35E] | -0.021 ± 0.028
11 | VAKRKCPDHGLDLSTYCQEDRQLICVLCPVIGAHHGHQLSTLDEA [Q35H] | 0.008 ± 0.036
12 | VAKRKCPDHGLDLSTYCQEDRQLICVLCPVIGAHCGHQLSTLDEA [Q35C] | -0.089 ± 0.031
13 | VAKRKCPDHGLDLSTYCQEDRQLICVLCPVIGAHQGWQLSTLDEA [H37W] | -0.95 ± 0.055
14 | VAKRKCPDHGLDLSTYCQEDRQLICVLCPVIGAHQGEQLSTLDEA [H37E] | -0.565 ± 0.033
15 | VAKRKCPDHGLDLSTYCQEDRQLICVLCPVIGAHQGYQLSTLDEA [H37Y] | -0.849 ± 0.071
16 | VAKRKCPDHGLDLSTYCQEDRQLICVLCPVIGAHQGIQLSTLDEA [H37I] | -1.01 ± 0.12
17 | VAKRKCPDHTLDLSTYCQEDRQLICVLCPVIGAHQGHQLSTLDEA [G10T] | -0.347 ± 0.033
18 | VAKRKCPDHGLDLSTYCQEDRQLICVLCPVIGAHQGHQLSTEDEA [L42E] | 0.035 ± 0.03
19 | VAKRKCPDHGLDLSTYCQEDRQLICVLCPVIGAHQGHQLSTRDEA [L42R] | 0.024 ± 0.026

Row | Variant | abundance fitness
20 | VAKRKCPDHGLDLSTYCQEDRYLICVLCPVIGAHQGHQLSTLDEA [Q22Y] | 0.02 ± 0.079
21 | VAKRKCPDHGLDLSTYCQEDRMLICVLCPVIGAHQGHQLSTLDEA [Q22M] | 0.004 ± 0.035
22 | VAKRKCPDHGLDLSTYCQEDRILICVLCPVIGAHQGHQLSTLDEA [Q22I] | -0.094 ± 0.07
23 | VAKRKCPDHGLYLSTYCQEDRQLICVLCPVIGAHQGHQLSTLDEA [D12Y] | -0.132 ± 0.039
24 | VAKRKCPDHGLDLSTYCQEDRQLICVLCPVIGAHQGHQPSTLDEA [L39P] | -0.032 ± 0.034
25 | VAKRKCPDHGLDLSTYCQEDRQLICVLCPVIGAHQGHQQSTLDEA [L39Q] | 0.033 ± 0.032
26 | VAKRKCPDHGLDLSTYCQEDRQLICVLCPVIGAHQGHQNSTLDEA [L39N] | -0.043 ± 0.056
27 | VAKRKCPDHGLDLSTYCQEDRQLICVLCPVIGAHQGHQFSTLDEA [L39F] | -0.026 ± 0.05
28 | VAKRKCPDHGLDLSTYCQEDRQLICVLCPVIGAHQGHQGSTLDEA [L39G] | -0.041 ± 0.025
29 | VAKRKCPDHGLDLSTYCQEDRQLICVLCPVIGAHQGHQKSTLDEA [L39K] | -0.06 ± 0.034
30 | VAKRKCPDHGLDLSTYYQEDRQLICVLCPVIGAHQGHQLSTLDEA [C17Y] | -0.767 ± 0.094
31 | VAKRKCPDHGLDLSTYKQEDRQLICVLCPVIGAHQGHQLSTLDEA [C17K] | -0.657 ± 0.052
32 | VAKRKCPDHGLDLSTYCQEDRQLICKLCPVIGAHQGHQLSTLDEA [V26K] | 0.113 ± 0.033
33 | VAKRKCPDHGLDLSTYCQEDRQLICRLCPVIGAHQGHQLSTLDEA [V26R] | 0.082 ± 0.027
34 | VAKRKCPDHGLDLSTYCQEDRQLICNLCPVIGAHQGHQLSTLDEA [V26N] | 0.062 ± 0.036
35 | VAKRKCPDHGLDLSTYCQEDRQLICVLCPVIGAPQGHQLSTLDEA [H34P] | -0.701 ± 0.046
36 | VAWRKCPDHGLDLSTYCQEDRQLICVLCPVIGAHQGHQLSTLDEA [K3W] | -0.196 ± 0.029
37 | VAARKCPDHGLDLSTYCQEDRQLICVLCPVIGAHQGHQLSTLDEA [K3A] | -0.134 ± 0.027
38 | VEKRKCPDHGLDLSTYCQEDRQLICVLCPVIGAHQGHQLSTLDEA [A2E] | 0.087 ± 0.031

Row | Variant | abundance fitness
39 | VPKRKCPDHGLDLSTYCQEDRQLICVLCPVIGAHQGHQLSTLDEA [A2P] | -0.088 ± 0.04
40 | VAKRKCPDHGLDLSTYCQEDRQLICVLCCVIGAHQGHQLSTLDEA [P29C] | -0.2 ± 0.039
41 | VAKRKCPDHGLDLSTYCQEDRQLICVLCEVIGAHQGHQLSTLDEA [P29E] | -0.031 ± 0.028
42 | VAKRKCPDHGLDLSTYCQEDRQLICVLCPVRGAHQGHQLSTLDEA [I31R] | 0.003 ± 0.026
43 | VAKRKCPDHGLDLSTYCQEDRQLICVLCPVHGAHQGHQLSTLDEA [I31H] | 0.029 ± 0.042
44 | VAKRKCPDHGLDLSTYCQEDRQLICVLCPVCGAHQGHQLSTLDEA [I31C] | -0.103 ± 0.031
45 | VAKRKCPDHGLDLSTYCQEDRQLICVLCPVIGAHQGHQLSTLDTA [E44T] | 0.014 ± 0.03
46 | VAKRKCPDHGLDLSTYCQEDRQLICVLCPVIGAHQGHQLSTLDGA [E44G] | -0.002 ± 0.027
47 | VAKRKCPDHGLDLSTYCQEDRQLICVLCPVIGAHQGHQLSTLDFA [E44F] | -0.123 ± 0.054
48 | VAKRKCPDHGLDLSTYCQEDRQLICVLCPVIGAHQGHQLSTLDVA [E44V] | -0.065 ± 0.029
49 | VAKRKCPDHGLDLSTYCQEDRQLICVLCPVIGAHQGHQLSTLDWA [E44W] | -0.14 ± 0.028
50 | VAKRKCPDHGLDLSTYCQEDRQLRCVLCPVIGAHQGHQLSTLDEA [I24R] | -0.171 ± 0.026
51 | VAKRKCPDHGLDLSTYCQEDRQLMCVLCPVIGAHQGHQLSTLDEA [I24M] | -0.041 ± 0.031
52 | VAKRKCPDHGLDLSTYCQEDRQLLCVLCPVIGAHQGHQLSTLDEA [I24L] | -0.068 ± 0.029
53 | VAKRKCPDHGLDLSTYCQEHRQLICVLCPVIGAHQGHQLSTLDEA [D20H] | -0.141 ± 0.047
54 | VAKRKCPDHGLDLSTYCQEYRQLICVLCPVIGAHQGHQLSTLDEA [D20Y] | -0.57 ± 0.1
55 | VAKRKCPDHGLDLSTYCQEFRQLICVLCPVIGAHQGHQLSTLDEA [D20F] | -0.914 ± 0.14
56 | VAKRKCPDHGLDLSTYCQEVRQLICVLCPVIGAHQGHQLSTLDEA [D20V] | -0.642 ± 0.032
57 | VAKRKCPDHGLDLSTYCQERRQLICVLCPVIGAHQGHQLSTLDEA [D20R] | -0.072 ± 0.026
